The source of these data is US9683238, “Vascular endothelial growth factor-binding aptamers” (National University Corporation Tokyo University of …).

The target of series [1] is T1, VEGF165 (vascular endothelial growth factor 165) (Homo sapiens, UniProt P15692-4 P15692-4:27-191). Nature of the series: SPR; VEGF immobilized on CM5; TBS with 5 mM KCl, pH 7.4, 20 C. As to conditions: tags: R&D Systems, expressed in Sf21 insect cells, chain copies: 2 (inferred, homodimer). How it is done:
(§1) The capacity of each oligonucleotide to bind to VEGF was evaluated using Biacore T200 (GE Healthcare Japan, Japan) by measuring SPR on a CM5 sensor chip. VEGF was dissolved in 10 mM acetate buffer (pH 6.0), and VEGF (about 1000 RU) was covalently bound to the CM5 sensor chip using an amine coupling kit. A non-labeled oligonucleotide (1 µM) was dissolved in Tris-buffered saline (TBS: 10 mM Tris-HCl, 100 mM NaCl, 5 mM KCl; pH 7.4), and the resulting solution was heated at 95° C. for 5 minutes, followed by allowing the solution to cool slowly. Under these conditions, each oligonucleotide is folded to form its specific secondary structure. Various concentrations of the oligonucleotide diluted with TBS was injected at a flow rate of 20 µl/minute at 20° C. onto the CM5 chip on which VEGF was immobilized. Binding between the immobilized VEGF and the oligonucleotide was monitored. By injecting NaCl (1 M), the CM5 chip was regenerated. Using Biacore evaluation software, the association rate and the dissociation rate were approximated to calculate the K_d value.
(In general: Surface plasmon resonance follows binding to a sensor surface in real time, without labels.)

The target of series [2] is T1, VEGF165 (vascular endothelial growth …). Nature of the series: SPR; no binding capacity; TBS, 20 C. As to conditions: tags: R&D Systems, expressed in Sf21 insect cells; chain copies: 2 (inferred, homodimer); G4 predicted. Here is the method:
as §1

Series [3] shares this target. Nature of the series: SPR; VEGF immobilized on CM5; TBS (10 mM Tris-HCl, 100 mM NaCl, 5 mM KCl, pH 7.4), 20 C. The conditions noted are these: tags: R&D Systems, expressed in Sf21 insect cells; chain copies: 2 (inferred, homodimer).

T1 sequence (P15692 other isoform, or with tags, fused parts or gaps): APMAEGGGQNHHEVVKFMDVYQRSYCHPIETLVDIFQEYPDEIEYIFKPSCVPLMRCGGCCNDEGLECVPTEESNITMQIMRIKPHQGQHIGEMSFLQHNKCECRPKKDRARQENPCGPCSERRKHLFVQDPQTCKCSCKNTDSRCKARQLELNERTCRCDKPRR

For orientation: Kd means a measure of binding affinity in units of concentration. Turning to TGTGGGGGAGGACGGGCGGGGATGC (ssDNA) [3R#01], the Kd in series [1] (G4 predicted) was 8.8 nM.
On the same count and under the same terms, with TGTGGGGGTGGTTGGGCGGGGCTGC (ssDNA) [3R09 (3R#09)] the figure was 2.4 nM.
Regarding TGTGGGGGTGGACTGGGTGGGTACC (ssDNA) [3R02 (3R#02)], binding in series [1] was characterised by a dissociation constant (Kd) of 0.3 nM.
On to TGTGCGGGGGGTGGGGGTGGTTCCC (ssDNA) [3R#04], for which the binding result in series [2] is given as “no binding”.
On the same count and under the same terms, with TGTGGGGCTGGGAGGTCGGGCCTGC (ssDNA) [3R#10] the entry was “no binding”.
The same measure, in the same setting: with TGTGGGGGGGGTGGGGGTGGACCGC (ssDNA) [3R#06] the entry was “no binding”.
On the same count and under the same terms, with TGTGCGGGTGGCCGGGGTGGCCTGC (ssDNA) [3R#07] the entry was “no binding”.
In series [1] (G4), TGTGGGGGTGGACGGGCCGGGTAGA (ssDNA) [VEap121] showed a Kd of 4.7 nM.

B1: 3R02 bivalent (ssDNA)
DNA: TGTGGGGGTGGACTGGGTGGGTACCTTTTTTTTTTTGTGGGGGTGGACTGGGTGGGTACC
Consider B1, for which the Kd in series [3] came to 0.03 nM.
On to TGTGGGGATGGATGGGCCGGGCTGC (ssDNA) [3R08 (3R#08)], for which, in series [1] (G4 predicted), the Kd was 1.5 nM.
As to TGTGGGGTTGGACGGGCCGTGTAGA (ssDNA) [2R#10], the binding result in series [2] is “no binding”.
Take TGTGGGGTTGGACGGACCGGGTAGG (ssDNA) [2R#08]: in series [2], the binding result was “no binding”.
The same measure, in the same setting: next, TGTGGGGGTGCGCGGGCCGGGCAGG (ssDNA) [2R#11]: “no binding”.
For the molecule TGTGGGGGTGGACGGGCCGAGTACG (ssDNA) [3R03 (3R#03)], the equilibrium dissociation constant (Kd) in series [1] (G4 predicted) is 1.7 nM.
